Assay results published in publication PMC8691596.
pKd: −log10 of the molar value.

Assays:
[1] = biological target: human FcγRIIa H131 extracellular domain, C-terminal hexa-His (independently-made panel) (human) (UniProt P12318)
[2] = biological target: mouse FcRn, heterodimer with β2 microglobulin, extracellular domain with C-terminal hexa-His (mouse | not stated) (UniProt Q61559); experiment: SPR
[3] = biological target: cynomolgus monkey FcRn, heterodimer with β2 microglobulin, extracellular domain with C-terminal hexa-His (cynomolgus monkey | not stated) (UniProt Q8SPV9); experiment: SPR
Chain of cynomolgus monkey FcRn, heterodimer with β2 microglobulin, extracellular domain with C-terminal hexa-His (cynomolgus monkey | not stated) (Q8SPV9 24-297, chain 1 of 2): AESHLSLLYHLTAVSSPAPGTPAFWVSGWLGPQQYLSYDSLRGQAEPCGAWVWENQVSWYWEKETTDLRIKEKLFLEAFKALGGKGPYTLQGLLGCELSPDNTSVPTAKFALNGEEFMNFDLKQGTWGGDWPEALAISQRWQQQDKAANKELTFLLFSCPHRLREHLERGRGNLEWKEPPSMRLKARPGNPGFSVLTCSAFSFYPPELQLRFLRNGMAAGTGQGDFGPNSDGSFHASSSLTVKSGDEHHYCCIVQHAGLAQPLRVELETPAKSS
Chain of cynomolgus monkey FcRn, heterodimer with β2 microglobulin, extracellular domain with C-terminal hexa-His (cynomolgus monkey | not stated) (Q6T672 21-119, chain 2 of 2, further chain): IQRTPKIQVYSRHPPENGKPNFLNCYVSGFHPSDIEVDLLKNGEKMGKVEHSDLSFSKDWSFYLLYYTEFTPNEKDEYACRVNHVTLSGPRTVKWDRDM

[4] = biological target: human FcRn, heterodimer with β2 microglobulin, extracellular domain with C-terminal hexa-His (UniProt P55899); experiment: SPR

Chain of human FcγRIIa H131 extracellular domain, C-terminal hexa-His (independently-made panel) (human) (P12318 34-217): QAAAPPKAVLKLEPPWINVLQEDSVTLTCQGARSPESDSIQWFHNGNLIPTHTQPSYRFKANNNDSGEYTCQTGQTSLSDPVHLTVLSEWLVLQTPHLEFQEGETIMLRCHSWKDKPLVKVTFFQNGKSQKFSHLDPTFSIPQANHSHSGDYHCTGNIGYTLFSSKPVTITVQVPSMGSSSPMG

Mean normalised luminescence (% of wild-type reference); Promega Fc effector bioassay, Jurkat NFAT-luciferase cells with the receptor + Raji cells, antibody 10 μg/mL [1] [%]	pKd [2]	pKd [3]	pKd [4]	Substance
100	–	–	–	anti-CD20 (rituximab variable regions) human IgG1 wild type reference (antibody)
–	7.15	6.46	6.25	Remicade (rituximab, wild-type human IgG1) (from UniProt P01857)
